Several values for one entry are separate records, joined by “and”; a condition that tells them apart may be missing. Identical values can stand only once.
Key:
[1] = biological target: T1, Bacillus anthracis protective antigen (PA), 83 kDa polypeptide (Bacillus anthracis, UniProt P13423 30-764)
[2] = biological target: T1, Bacillus anthracis protective antigen …; remark: listed apart in the source
[3] = biological target: T1, Bacillus anthracis protective antigen …; remark: listed apart in the source

T1 sequence (P13423 30-764 limits assumed): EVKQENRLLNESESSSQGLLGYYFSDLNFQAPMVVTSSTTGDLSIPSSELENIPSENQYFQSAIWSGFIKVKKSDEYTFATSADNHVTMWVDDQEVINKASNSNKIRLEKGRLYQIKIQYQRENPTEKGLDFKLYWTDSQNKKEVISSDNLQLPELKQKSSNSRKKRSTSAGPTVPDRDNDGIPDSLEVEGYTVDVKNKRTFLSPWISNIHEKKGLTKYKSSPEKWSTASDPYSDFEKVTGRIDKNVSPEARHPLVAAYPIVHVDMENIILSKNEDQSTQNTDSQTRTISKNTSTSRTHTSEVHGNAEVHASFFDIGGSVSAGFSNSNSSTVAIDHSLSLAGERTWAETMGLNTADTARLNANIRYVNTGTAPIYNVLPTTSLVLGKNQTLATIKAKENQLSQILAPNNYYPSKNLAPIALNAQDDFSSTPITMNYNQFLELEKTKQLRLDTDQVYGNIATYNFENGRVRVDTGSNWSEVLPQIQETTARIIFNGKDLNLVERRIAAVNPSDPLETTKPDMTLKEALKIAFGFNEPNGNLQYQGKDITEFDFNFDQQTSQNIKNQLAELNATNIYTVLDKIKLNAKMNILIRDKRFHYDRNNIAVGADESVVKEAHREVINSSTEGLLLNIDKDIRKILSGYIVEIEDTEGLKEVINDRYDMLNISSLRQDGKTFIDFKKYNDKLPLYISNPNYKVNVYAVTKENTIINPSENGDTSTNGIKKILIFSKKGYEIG

B1: A2E scFv (scFv)
scFv: DIQMTQTTSSLSASLGDRVTISCRASQDIRNYLNWYQQKPDGTVKLLIYYTSRLQPGVPSRFSGSGSGTDYSLTISNQEQEDIGTYFCQQGNTLPWTGFFFTKLEIKRGGGGSGGGGSGGGGSGGGGSEVQLQQSGPELVKPGASVKISCKIDSGYAFSSSWMNWVKQRFGQGLEWIGRIYPGDGDTNYNGKFKGKATLTADKSSSTAYMQLSSLTSVDSAVYFCARSGLLRYAMDYWGQGTSVTVSS
- fold higher affinity than the 14B7 scFv [1]: 3 fold
- fold lower equilibrium dissociation constant than 14B7 [1]: 3 fold
- Kd [2]: 4 nM
- koff [2]: 0.001 s⁻¹
- kon [2]: 300000 M⁻¹ s⁻¹
- EC50 (read off the curve) [3]: ~0.02 µg/mL and ~0.05 µg/mL
